# Patent publication US20040006022A1 (Harvard, published 2004)
# Read-outs that look alike come from different tables or passages of the source.
# What was measured:
# [1] = target: recombinant water-soluble 'empty' HLA-DR4 (DRB1*0401) (human)
# [2] = target: recombinant water-soluble 'empty' HLA-DR1 (DRB1*0101) (human); experiment: competitive binding ELISA on recombinant HLA-DR1; competitor biotinylated YEAK
# [3] = target: HLA-DR1 purified from human homozygous EBV-transformed B cell lines (human); experiment: size-exclusion column of YEAK incubated with an excess of HLA-DR purified from B cell lines
# [4] = target: HLA-DR2 purified from human homozygous EBV-transformed B cell lines (human); experiment: as above
# [5] = target: HLA-DR4 purified from human homozygous EBV-transformed B cell lines (human); experiment: as above
# [6] = target: recombinant water-soluble 'empty' HLA-DR1 (DRB1*0101) (human); experiment: incubation 1:1 with water-soluble HLA-DR, Centricon ultrafiltration, acid extraction, amino acid analysis
# [7] = target: recombinant water-soluble 'empty' HLA-DR2 (DRB1*1501) (human); experiment: as above
# [8] = target: recombinant water-soluble 'empty' HLA-DR4 (DRB1*0401) (human); experiment: as above
# [9] = target: HLA-DR1 on L fibroblasts transfected with HLA-DR1 (L57.23) (human); experiment: cell-based or functional assay
# [10] = target: HLA-DR4 on L fibroblasts transfected with HLA-DR4 (human); experiment: cell-based or functional assay
# [11] = target: T1, recombinant water-soluble 'empty' HLA-DR4 (DRB1*0401) (human); experiment: competitive binding ELISA on recombinant HLA-DR4; competitor biotinylated YEAK
# T1 construct: extracellular domain; extracellular domain is inferred from 'water-soluble'
# [12] = target: T2, recombinant water-soluble 'empty' HLA-DR1 (DRB1*0101) (human); experiment: competitive binding ELISA; competitors biotinylated Multipin peptides
# T2 construct: extracellular domain
# [13] = target: T1, recombinant water-soluble 'empty' …; experiment: as above
molecule,measurement,setting,value
"heteropolymer YEAK (Copolymer 1), poly(Y,E,A,K)",affinity determined by competition,[1],2.5 µM
same,affinity determined by competition,[2],8 µM
same,percent of YEAK at the lower molecular weight position of control (unbound) YEAK,[3],< 10%
same,percent of YEAK at the lower molecular weight position of control (unbound) YEAK,[4],< 10%
same,percent of YEAK at the lower molecular weight position of control (unbound) YEAK,[5],< 10%
same,percent of added YEAK in the bound fraction,[6],> 95%
same,percent of added YEAK in the bound fraction,[7],80%
same,percent of added YEAK in the bound fraction,[8],> 95%
"EKAYAAAAAAAAAAA [synthetic 15-mer peptide SEQ ID NO: 27, EKAYAAAAAAAAAAA]",inhibition of the response of 19.3 T cells (IL-2 secretion),[9],~100%
same,inhibition of the DR4 3838 T cell clone (IL-2 secretion),[10],> 80%
same,inhibition of the DR4 D3 T cell clone (IL-2 secretion),[10],> 80%
"AKEYAAAAAAAAAAA [synthetic 15-mer peptide SEQ ID NO: 20, AKEYAAAAAAAAAAA]",inhibition of the response of 19.3 T cells (IL-2 secretion),[9],~100%
"AAEYKAAAAAAAAAA [synthetic 15-mer peptide SEQ ID NO: 26, AAEYKAAAAAAAAAA]",inhibition of the response of 19.3 T cells (IL-2 secretion),[9],~100%
"AKKYAAAAAAKAAAA [synthetic 15-mer peptide SEQ ID NO: 8, AKKYAAAAAAKAAAA]",inhibition of the DR4 D3 T cell clone (IL-2 secretion),[10],> 80%
"AEKAYAAAAAAAAAA [synthetic 15-mer peptide SEQ ID NO: 33, AEKAYAAAAAAAAAA]",inhibition of the DR4 3838 T cell clone (IL-2 secretion),[10],> 80%
"AKKYAEAAAAAAAAA [synthetic 15-mer peptide SEQ ID NO: 22, AKKYAEAAAAAAAAA]",inhibition of the DR4 3838 T cell clone (IL-2 secretion),[10],> 80%
"AEKYAAAAAAKAAAA [synthetic 15-mer peptide SEQ ID NO: 6, AEKYAAAAAAKAAAA]",inhibition of the DR4 3838 T cell clone (IL-2 secretion),[10],> 80%
"EAKYAAAAAAKAAAA [synthetic 15-mer peptide SEQ ID NO: 18, EAKYAAAAAAKAAAA]",inhibition of the DR4 D3 T cell clone (IL-2 secretion),[10],> 80%
same,affinity determined by competition,[11],3 µM
"EKKYAAAAAAKAAAA [synthetic 15-mer peptide SEQ ID NO: 17, EKKYAAAAAAKAAAA]",inhibition of the DR4 3838 T cell clone (IL-2 secretion),[10],> 80%
"AEEYAAAAAAKAAAA [synthetic 15-mer peptide SEQ ID NO: 11, AEEYAAAAAAKAAAA]",inhibition of the DR4 3838 T cell clone (IL-2 secretion),[10],> 80%
"EAAYAAAAAAKAAAA [synthetic 15-mer peptide SEQ ID NO: 16, EAAYAAAAAAKAAAA]",inhibition of the DR4 3838 T cell clone (IL-2 secretion),[10],> 80%
same,inhibition of the DR4 D3 T cell clone (IL-2 secretion),[10],> 80%
"AEAYKAAAAAAAAAA [synthetic 15-mer peptide SEQ ID NO: 23, AEAYKAAAAAAAAAA]",inhibition of the DR4 3838 T cell clone (IL-2 secretion),[10],> 80%
"AGFKGEQGPKGEP [collagen II (CII) peptide 261-273, AGFKGEQGPKGEP]",binding result,[12],binds
same,binding result,[13],binds
"AAKYEAAAAAAAAAA [synthetic 15-mer peptide SEQ ID NO: 28, AAKYEAAAAAAAAAA]",inhibition of the DR4 3838 T cell clone (IL-2 secretion),[10],> 80%
"AAKYAEAAAAKAAAA (also called peptide 15) [synthetic 15-mer peptide SEQ ID NO: 15, AAKYAEAAAAKAAAA]",inhibition of the response of 19.3 T cells (IL-2 secretion),[9],~100%
same,inhibition of the DR4 D3 T cell clone (IL-2 secretion),[10],> 80%
same,affinity determined by competition,[11],< 1 µM
